Test results published in the supplement of paper PMC10567573.

B1: DUSP5 (parent)
chain: YSEYPECCVDVKPISQEKIESERA
B2: IQUB (parent)
chain: EADYEDDSKIAFLMQLQDIQYLTE

Variants of: B1
Assay: protein stability index of a GFP-peptide fusion (GPS, HEK-293T) (PSI 1-6); higher = more stable
Settings: c terminus: a fixed tail appended
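Also: lentivirally expressed fusions sorted by FACS into six bins by GFP to DsRed ratio, PSI derived from sequencing read proportions per bin multiplied by bin number.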

Protein stability index: each site, then its substitutions
Y4: T 5.77 | F 4.06 | Q 5.34 | V 5.67 | S 5.19 | K 5.62 | M 4.6 | D 5.67 | I 5.75 | P 5.53 | A 5.66 | W 1.72 | H 5.02 | G 5.77 | L 5.71 | R 5.52 | E 5.93
E3: Y 4.24 | F 4.66 | N 4.62 | P 4.56 | I 4.17 | G 4.27 | Q 4.36 | T 4.67 | C 3.53 | H 4.49 | S 3.95 | K 4.53 | D 5.39 | A 4.55 | M 4.7 | R 4.17 | L 4.24
S2: K 5.35 | V 2.53 | C 2.29 | R 5.49 | L 3.67 | P 4.88 | W 4.44 | I 1.92 | T 2.62 | Y 4.93 | M 4.28 | F 4.11 | G 5.11 | Q 4.29 | H 2.13 | N 5.31 | A 3.48 | D 5.29 | E 5.79
Y1: P 4.94 | K 5.36 | W 5.1 | L 5.5 | A 5.74 | E 5.86 | R 5.62 | C 5.2 | T 5.23 | V 5.31 | Q 5.33 | H 5.21 | G 5.21 | M 5 | I 4.87 | F 4.12 | D 5.29 | S 5.75 | N 5.6
P5: D 5.42 | W 1.21 | I 3.96 | N 5.38 | T 4.85 | L 4.28 | Q 5.33 | V 4.45 | K 5.16 | R 3.48 | S 4.73 | F 3.18 | C 4.34 | A 4.47 | M 3.98 | Y 3.9 | H 3.39
C8: A 4.56
C7: G 5.38 | M 3.81 | W 2.95 | Y 2.02 | N 4.64 | K 4.6 | V 3.95 | T 4.81 | I 3.37 | S 5.47 | Q 5.35 | P 5.4 | D 4.89 | L 3.75 | F 2.28 | E 5.76 | H 4.17 | R 4.26 | A 4.16
E6: S 2.9 | Y 1.44 | R 1.83 | F 2.28 | W 3.98 | G 3.36 | A 2.63 | K 1.38 | M 1.63 | C 2.6 | H 2.47 | P 2.4 | T 2.75 | V 2.37 | D 4.55 | Q 2.67 | N 3.74

Variants of: B2
Assay: as above
Settings: c terminus: a fixed tail appended

Protein stability index: each site, then its substitutions
L13: P 4.68 | Q 4.34 | H 4.15 | E 4.54 | N 4.55 | I 2.77 | S 4.41 | K 4.11 | A 4.02
E24: M 1.86 | R 2.07 | Q 2.72 | F 1.92 | D 3.32 | A 2.91 | G 2.89 | N 2.61 | W 2.45
I19: V 3.86 | N 3.98 | A 4.17 | W 2.64 | R 3.78 | Y 3.54 | T 4.15 | E 4.96 | K 4.86 | H 3.98 | C 3.96
Q20: D 3.86 | M 2.48 | E 3.98 | T 3.05 | H 3.12
S8: R 2.88 | E 3.21 | Y 2.34 | T 3.07 | V 2.6 | L 2.25 | Q 3.32
